From US8871276B2, “Beta-casein assemblies for mucosal delivery of therapeutic bioactive agents” (Technion Research and Development Foundation Ltd., priority 2008, dated 2014) come the findings set out here.

What all share (type): physicochemical
Data set [1] in a line: Density measurements of β-casein solutions (density meter DMA 5000). The note with it: 20 mg/ml β-casein, pH 2.6, lactic acid solution. As to the method:
The specific gravity of the solvents and the protein solutions was measured by a density meter DMA 5000 from Anton-Paar at various temperatures. These measurements enabled an accuracy of six digits.
Density measurements of the β-casein solutions at pH 2.6 as a function of temperature are summarized in Table 1 Density measurements were performed using a density meter DMA 5000 from Anton-Paar, reaching an accuracy of six digits.

Data set [2] in a line: Wide-angle X-ray diffraction (XRD). The note with it: powder / lyophilized specimen, 1:8 mole ratio where loaded. As to the method:
The operating conditions were CuKα radiation (0.154 nm), voltage 40 kV and current 40 mA, in 20 recording range from 3° to 65°, at room temperature.

Data set [3] in a line: Analytical ultracentrifugation (sedimentation equilibrium). As to the method:
Sedimentation equilibrium experiments were performed at 24° C. using a Beckman Optima XL-A (Palo Alto, Calif.) analytical centrifuge at 6,000, 10,000, and 12,000 rpm for the low-pH solutions and at 4,000, 6,000, and 8,000 rpm for the pH 7.0 solutions. Data were collected at 280 nm. The β-casein solutions were studied at concentrations ranging from 0.2 to 10.0 mg/mL at pH 2.6 and from 0.2 to 2 mg/mL at pH 7.0 and an ionic strength of 0.1. […] The average apparent molecular weight of the micelles at the various protein concentrations was calculated following methods well known in the art (The partial specific volume νj of the solute was taken to be […], and a solution density F of 1.0044 g/cm^3 was measured). At β-casein concentrations of 2 mg/mL and above under low pH conditions, the plot of the natural logarithm of the measured absorbance versus the square of the radius from the axis of rotation was not linear. To estimate Nagg, the limiting slope toward the outer edge of the sample cell was used to provide d ln(c)/dr^2. The molecular weight calculated using this slope was divided by the monomer molecular weight calculated from the β-casein amino acid sequence (24,000).
To determine the aggregation number of the micelles at pH 2.6, analytical ultracentrifugation experiments were conducted at various protein concentrations and at […] and IS of 0.002. Sample data are plotted in FIG. 7, showing data with the protein concentration at 5 mg/ml, and ionic strength (IS) of 0.002. […] The aggregation numbers calculated from the slope of this line confirmed that the protein is monomeric at these concentrations. At concentrations higher than the CMC, two regions could be defined, indicating the presence of two protein populations: monomers at relatively short radii (i.e., in FIG. 7 at r<6.5 or r2<43) and assemblies at large radii. The micelles at pH 2.6 are characterized by a small aggregation number of 3 around the CMC and 6 at higher concentrations. In contrast, Nagg of 20 was measured at pH 7.0 and ionic strength 0.1. […]

B1: β-casein: bovine β-casein self-assembled into unloaded micelles in acidic or neutral buffer (protein, UniProt P02666 16-224, looked up)
Beta-casein: RELEELNVPGEIVESLSSSEESITRINKKIEKFQSEEQQQTEDELQDKIHPFAQTQSLVYPFPGPIPNSLPQNIPPLTQTPVVVPPFLQPEVMGVSKVKEAMAPKHKEMPFPKYPVEPFTESQSLTLTDVENLHLPLPLLQSWMHQPHQPLPPTVMFPPQSVLSLSQSKVLPVPQKAVPYPQRDMPIQAFLLYQEPVLGPVRGPFPIIV
modifications: self-assembled micelles
notes: bovine β-casein self-assembled into unloaded micelles in acidic or neutral buffer
Regarding B1, the Solution density in data set [1] (4 °C) came out at 1.01 g/mL; in data set [1] (16 °C), 1.009 g/mL; in data set [1] (25 °C) it was 1.007 g/mL; in data set [1] (40 °C), 1.002 g/mL. The “Solid form by X-ray diffraction” value in data set [2] is given as “amorphous pattern”. In addition, the “Aggregation number (ultracentrifugation)” value in data set [3] (pH 2.6, around the CMC) is on record as 3; in data set [3] (pH 2.6, concentrations higher than the CMC, 24-25 °C) it was 6. In addition, the “Nagg (ultracentrifugation)” value in data set [3] (pH 7.0, ionic strength 0.1) came to 20.
